Results as given in the supplement of paper PMC9170038.

Each sequence was assayed on K4 kissing-loop RNA reporter (assay: apparent KD of K4 kissing-loop reporter; higher = weaker reporter binding). Settings: Eterna round: R107; input ligand: FMN 200 uM.
Protocol: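 RNA-MaP round R107: designed RNA switches with theophylline, tryptophan, arginine or FMN aptamers are transcribed on-chip within common flanks. They are titrated with a labelled K4 kissing-loop RNA reporter in RNA-MaP buffer (100 mM Tris pH 7.5, 80 mM KCl, 4 mM MgCl2), without ligand or with the indicated ligand. Median apparent KD per design.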
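Further: bound reporter read as fluorescence of individual clusters on recovered sequencing chips by microscopy, with normalized cluster intensities fitted with a binding model.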

In order of rising “apparent KD of K4 kissing-loop reporter” value:
1. GAUGAUCGCGCGGCCGCCACUGGUCAGUGAUGUUGACAUUAAUGCGCCGAGUAGUAACGGCGCAGCAGGACCGGGCGCGAUGUAG [#12 K4 Tryptophan B Same State]  144 nM
2. CCCUCACGAGUGAUGUUCGUAGGGUACAGUCAGGAUAUCAUGCGGUUGAGAAGGGACAGAGAGGGCGGCCACUGGUUGCUCUUCU [Tiatesqu]  150 nM
3. AACUGUUGGGAAGGAUAUUAUGGUGGCUAAAUCCAGUGAUGUUGGAAAUCGGUACUCGCCCACCUUUAAGAAGGUCCGUGAAAGA [theeternabot_sameState_KL_FMN_B_6]  152 nM
4. GGGAGUAGUGCGGCCGCCACUGAGAAAGAAGAAGAAUAUAGUGAUGUUAUAUAGGAAAGGAAGAACAGGACCGGGCAUUAGAGGG [SSTRyptB.C]  163 nM
5. AAAAUAAAUAGCAGUCACGGAGUGAUGUUCCGAGGACCGGUACGGCCGCCACUCGACCAGACAAAGUCUGGAUGGCGAGACUGCA [#SwitchBubble 19 #K4Early]  200 nM
6. AGCAGUCAACUCGAAACCAUCGAAGAUGGUCGAGGACCGGUACGGCCGCCACUCGGAGUGAUGUUCCGAAGACUGCAAAAUAAAA [#SwitchBubble 14]  283 nM
7. AUACCUCUACGAGUGAUGUUUGUUGAGGAUACCAGCAUGUAUAGUUGCCCUUGGCAGCCUUGGCUCGUGCGCUCCCUCCGAACCG [theeternabot_exclusion_KL_Theo_A_30]  296 nM
8. AAACAACGUGACGAUACCAGCUUACUCGGCAAGCCAGUGAUGUUGGUGAAAAGGAGUCAAAGCCCUUGGCAGCGUCGAAGGUUUG [Leteon]  310 nM
9. UGUGUUUUUUUGAUGUUUGUUGUAAAAUGGCAGGAUAUCGUAGAGGCGAGAAGGGCUUUUAUGCGUUAUGAGUGAUGUUUGUAGG [qqdqmullin]  316 nM
10. CCUAUCUCAUACGAUACCAGUCAACGAGUGAUGUUCGAAUAAAUAAAUUUGCCAUAUAAUGACCCUUGGCAGCGUAUGGGAUAGG [Ex Theophylline B K4 14]  352 nM
11. AGUGGAACUUGCAGGUAUCCACAACUGGAUACCAGCUCGGAAACGAGCCCUUGGCAGCCAGAUCUUGCAGUGAUGUUGCAAGUUC [Design10]  392 nM
12. UGUAAGUGUCAGCGAGUGAUGUUCGACGAUACCAGACUCGAUAGAGUCCCUUGGCAGCGUAAUGCAUGCCAAACUGGCACAUACU [#SwitchBubble 11 #K4Early]  453 nM
13. CCAUUCUUUUACGAUACCAGUUUAAUAUAUUUAAUCAAAACCCUCGCCGAGUGAUGUUCGGACCCUUGGCAGCGUUUGCGAGAGG [bjnbstkmullin]  455 nM
14. AUAGCACCUUAUGAUACCAGACGAGUGAUGUUCUGUGGUGUCGUCACAAGGCAAUCGACUGUCCCUUGGCAGCAUCAUUCUAUAU [theeternabot_exclusion_KL_Theo_B_31]  563 nM
15. AACUCUCAGACAUCUGAGUGAUGUUCAGGCCGAGGACCGGUACGGCCGCCACUCGGGUCUGAGAGAGGUUAUCAAAGAUAGCCAA [Omei KL Tryp A SS A v4]  570 nM
16. AAAUAAAGCAGUCAGCCAGUGAUGUUGGAAGGAGCGUGCGAAAGCACAGGUAGGUCGCCAAAACCUAAUACUGGCUGCUAAAUAA [#SwitchBubble 1 #K4Early]  979 nM
17. GGCAUCCAUGGACAUAGUGAUGUUAUGUGCCGAGGACCGGUACGGCCGCCACUCGACCAUGGAUGCCGCAAUCGGAAACGAUUGC  1090 nM
18. GGAGUUACCUGGGAUACCAGCCGGAGGCCCAGAGCUCGGAGUGAUGUUCUGGGAUGUUUCGGCCCUUGGCAGCUCUGGGUCUCCC [#2 Exclusion - Theophylline B Attempt #6 (HarryS)]  1520 nM

Same assay, conditions: Eterna round: R107; input ligand: arginine 13.2 mM

In order of rising “apparent KD of K4 kissing-loop reporter” value:
1. GAUGAUCGCGCGGCCGCCACUGGUCAGUGAUGUUGACAUUAAUGCGCCGAGUAGUAACGGCGCAGCAGGACCGGGCGCGAUGUAG [#12 K4 Tryptophan B Same State]  141 nM
2. AACUGUUGGGAAGGAUAUUAUGGUGGCUAAAUCCAGUGAUGUUGGAAAUCGGUACUCGCCCACCUUUAAGAAGGUCCGUGAAAGA [theeternabot_sameState_KL_FMN_B_6]  164 nM
3. GGGAGUAGUGCGGCCGCCACUGAGAAAGAAGAAGAAUAUAGUGAUGUUAUAUAGGAAAGGAAGAACAGGACCGGGCAUUAGAGGG [SSTRyptB.C]  171 nM
4. AUACCUCUACGAGUGAUGUUUGUUGAGGAUACCAGCAUGUAUAGUUGCCCUUGGCAGCCUUGGCUCGUGCGCUCCCUCCGAACCG [theeternabot_exclusion_KL_Theo_A_30]  240 nM
5. CCCUCACGAGUGAUGUUCGUAGGGUACAGUCAGGAUAUCAUGCGGUUGAGAAGGGACAGAGAGGGCGGCCACUGGUUGCUCUUCU [Tiatesqu]  249 nM
6. AAACAACGUGACGAUACCAGCUUACUCGGCAAGCCAGUGAUGUUGGUGAAAAGGAGUCAAAGCCCUUGGCAGCGUCGAAGGUUUG [Leteon]  268 nM
7. AAAAUAAAUAGCAGUCACGGAGUGAUGUUCCGAGGACCGGUACGGCCGCCACUCGACCAGACAAAGUCUGGAUGGCGAGACUGCA [#SwitchBubble 19 #K4Early]  290 nM
8. CCAUUCUUUUACGAUACCAGUUUAAUAUAUUUAAUCAAAACCCUCGCCGAGUGAUGUUCGGACCCUUGGCAGCGUUUGCGAGAGG [bjnbstkmullin]  291 nM
9. UGUGUUUUUUUGAUGUUUGUUGUAAAAUGGCAGGAUAUCGUAGAGGCGAGAAGGGCUUUUAUGCGUUAUGAGUGAUGUUUGUAGG [qqdqmullin]  297 nM
10. AGCAGUCAACUCGAAACCAUCGAAGAUGGUCGAGGACCGGUACGGCCGCCACUCGGAGUGAUGUUCCGAAGACUGCAAAAUAAAA [#SwitchBubble 14]  299 nM
11. AGUGGAACUUGCAGGUAUCCACAACUGGAUACCAGCUCGGAAACGAGCCCUUGGCAGCCAGAUCUUGCAGUGAUGUUGCAAGUUC [Design10]  323 nM
12. AACUCUCAGACAUCUGAGUGAUGUUCAGGCCGAGGACCGGUACGGCCGCCACUCGGGUCUGAGAGAGGUUAUCAAAGAUAGCCAA [Omei KL Tryp A SS A v4]  356 nM
13. CCUAUCUCAUACGAUACCAGUCAACGAGUGAUGUUCGAAUAAAUAAAUUUGCCAUAUAAUGACCCUUGGCAGCGUAUGGGAUAGG [Ex Theophylline B K4 14]  373 nM
14. UGUAAGUGUCAGCGAGUGAUGUUCGACGAUACCAGACUCGAUAGAGUCCCUUGGCAGCGUAAUGCAUGCCAAACUGGCACAUACU [#SwitchBubble 11 #K4Early]  438 nM
15. GGAGUUACCUGGGAUACCAGCCGGAGGCCCAGAGCUCGGAGUGAUGUUCUGGGAUGUUUCGGCCCUUGGCAGCUCUGGGUCUCCC [#2 Exclusion - Theophylline B Attempt #6 (HarryS)]  512 nM
16. AUAGCACCUUAUGAUACCAGACGAGUGAUGUUCUGUGGUGUCGUCACAAGGCAAUCGACUGUCCCUUGGCAGCAUCAUUCUAUAU [theeternabot_exclusion_KL_Theo_B_31]  531 nM
17. AAAUAAAGCAGUCAGCCAGUGAUGUUGGAAGGAGCGUGCGAAAGCACAGGUAGGUCGCCAAAACCUAAUACUGGCUGCUAAAUAA [#SwitchBubble 1 #K4Early]  643 nM
18. GGCAUCCAUGGACAUAGUGAUGUUAUGUGCCGAGGACCGGUACGGCCGCCACUCGACCAUGGAUGCCGCAAUCGGAAACGAUUGC  915 nM

Same assay, conditions: Eterna round: R107; input ligand: none

In order of falling “apparent KD of K4 kissing-loop reporter” value:
1. AAAUAAAGCAGUCAGCCAGUGAUGUUGGAAGGAGCGUGCGAAAGCACAGGUAGGUCGCCAAAACCUAAUACUGGCUGCUAAAUAA [#SwitchBubble 1 #K4Early]  773 nM
2. AUAGCACCUUAUGAUACCAGACGAGUGAUGUUCUGUGGUGUCGUCACAAGGCAAUCGACUGUCCCUUGGCAGCAUCAUUCUAUAU [theeternabot_exclusion_KL_Theo_B_31]  453 nM
3. AGUGGAACUUGCAGGUAUCCACAACUGGAUACCAGCUCGGAAACGAGCCCUUGGCAGCCAGAUCUUGCAGUGAUGUUGCAAGUUC [Design10]  392 nM
4. AAACAACGUGACGAUACCAGCUUACUCGGCAAGCCAGUGAUGUUGGUGAAAAGGAGUCAAAGCCCUUGGCAGCGUCGAAGGUUUG [Leteon]  334 nM
5. UGUGUUUUUUUGAUGUUUGUUGUAAAAUGGCAGGAUAUCGUAGAGGCGAGAAGGGCUUUUAUGCGUUAUGAGUGAUGUUUGUAGG [qqdqmullin]  315 nM
6. AGCAGUCAACUCGAAACCAUCGAAGAUGGUCGAGGACCGGUACGGCCGCCACUCGGAGUGAUGUUCCGAAGACUGCAAAAUAAAA [#SwitchBubble 14]  307 nM
7. AACUGUUGGGAAGGAUAUUAUGGUGGCUAAAUCCAGUGAUGUUGGAAAUCGGUACUCGCCCACCUUUAAGAAGGUCCGUGAAAGA [theeternabot_sameState_KL_FMN_B_6]  151 nM
8. GGGAGUAGUGCGGCCGCCACUGAGAAAGAAGAAGAAUAUAGUGAUGUUAUAUAGGAAAGGAAGAACAGGACCGGGCAUUAGAGGG [SSTRyptB.C]  147 nM
9. GAUGAUCGCGCGGCCGCCACUGGUCAGUGAUGUUGACAUUAAUGCGCCGAGUAGUAACGGCGCAGCAGGACCGGGCGCGAUGUAG [#12 K4 Tryptophan B Same State]  145 nM
